Earlier results in PMC4487222.

Molecular target: CheY (Thermotoga maritima) (UniProt Q56312)
Sequence (Q56312 whole entry): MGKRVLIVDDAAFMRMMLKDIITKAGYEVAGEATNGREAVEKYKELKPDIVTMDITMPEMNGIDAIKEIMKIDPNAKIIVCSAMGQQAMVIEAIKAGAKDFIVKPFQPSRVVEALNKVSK

Sequence of CheA (Q56310 whole entry): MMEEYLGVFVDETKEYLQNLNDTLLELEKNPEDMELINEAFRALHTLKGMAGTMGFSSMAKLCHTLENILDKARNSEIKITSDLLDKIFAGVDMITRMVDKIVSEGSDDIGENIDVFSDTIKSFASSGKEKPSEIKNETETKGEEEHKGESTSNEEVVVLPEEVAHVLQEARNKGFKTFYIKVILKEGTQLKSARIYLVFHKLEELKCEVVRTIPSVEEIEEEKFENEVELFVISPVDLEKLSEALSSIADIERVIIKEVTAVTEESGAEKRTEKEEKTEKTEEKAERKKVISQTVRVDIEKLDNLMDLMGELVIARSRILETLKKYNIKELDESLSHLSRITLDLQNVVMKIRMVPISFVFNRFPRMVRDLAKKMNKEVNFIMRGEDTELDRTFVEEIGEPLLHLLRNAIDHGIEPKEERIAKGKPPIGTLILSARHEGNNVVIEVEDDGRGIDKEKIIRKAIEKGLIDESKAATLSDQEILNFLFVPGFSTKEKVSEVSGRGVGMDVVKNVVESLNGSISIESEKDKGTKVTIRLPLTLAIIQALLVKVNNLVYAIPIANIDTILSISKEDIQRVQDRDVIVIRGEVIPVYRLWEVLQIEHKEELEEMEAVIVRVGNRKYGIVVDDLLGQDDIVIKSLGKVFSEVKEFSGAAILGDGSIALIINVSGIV

Kd: 200 nM
Substance: CheA (from UniProt Q56310)
